# Assay results: IntAct's records for PubMed 16858409
# B1: Mitochondrial antiviral-signaling protein (Mus musculus), Q8VCF0 (parent)
# chain: MTFAEDKTYKYIRDNHSKFCCVDVLEILPYLSCLTASDQDRLRASYRQIGNRDTLWGLFNNLQRRPGWVEVFIRALQICELPGLADQVTRVYQSYLPPGTSLRSLEPLQLPDFPAAVSGPSAFAPGHNIPDHGLRETPSCPKPVQDTQPPESPVENSEQLLQTNSGAVARMSGGSLIPSPNQQALSPQPSREHQEQEPELGGAHAANVASVPIATYGPVSPTVSFQPLPRTALRTNLLSGVTVSALSADTSLSSSSTGSAFAKGAGDQAKAATCFSTTLTNSVTTSSVPSPRLVPVKTMSSKLPLSSKSTAAMTSTVLTNTAPSKLPSNSVYAGTVPSRVPASVAKAPANTIPPERNSKQAKETPEGPATKVTTGGNQTGPNSSIRSLHSGPEMSKPGVLVSQLDEPFSACSVDLAISPSSSLVSEPNHGPEENEYSSFRIQVDESPSADLLGSPEPLATQQPQEEEEHCASSMPWAKWLGATSALLAVFLAVMLYRSRRLAQ
# partner: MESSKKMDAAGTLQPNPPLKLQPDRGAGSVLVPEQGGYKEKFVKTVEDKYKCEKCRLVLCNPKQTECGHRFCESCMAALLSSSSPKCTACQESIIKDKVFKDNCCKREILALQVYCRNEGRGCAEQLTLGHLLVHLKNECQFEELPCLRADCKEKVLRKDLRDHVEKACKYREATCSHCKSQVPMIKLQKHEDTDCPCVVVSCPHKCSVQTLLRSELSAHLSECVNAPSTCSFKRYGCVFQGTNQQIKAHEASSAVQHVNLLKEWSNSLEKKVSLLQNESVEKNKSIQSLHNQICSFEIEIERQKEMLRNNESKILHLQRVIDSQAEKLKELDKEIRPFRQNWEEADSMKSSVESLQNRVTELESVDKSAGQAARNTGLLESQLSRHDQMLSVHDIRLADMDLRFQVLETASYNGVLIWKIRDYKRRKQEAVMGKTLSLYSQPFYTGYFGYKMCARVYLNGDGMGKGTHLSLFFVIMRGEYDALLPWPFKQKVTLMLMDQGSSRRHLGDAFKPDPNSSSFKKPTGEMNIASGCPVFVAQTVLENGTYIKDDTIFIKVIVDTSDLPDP
# B2: TNF receptor-associated factor 3 (Mus musculus), Q60803 (parent)
# chain: B1 partner
# partner: B1 chain
# Variants of: B1
# Settings: with traf3_mouse Traf3, Q60803
row,Variant,effect of a mutation on the interaction
1,T147I,disrupting interaction

# Variants of: B2
# Settings: with mavs_mouse Mavs
row,Variant,effect of a mutation on the interaction
1,Y440A,disrupting interaction
2,Q442A,disrupting interaction
